Source: US20180305460A1 (Teva, published 2018)
Substitutions are numbered along the chain they refer to. Numbers in names are those of the source. Read-outs that look alike come from different tables or passages of the source.

Tests used:
[1] = biological target: T1, Human CD38 on CD38-positive myeloma cells (ARP-1, H929) (human, UniProt P28907 43-300); assay: flow cytometry, ARP-1 cells (CD38-positive)
T1 construct: Endogenous CD38 on the human myeloma cell lines ARP-1 and H929, used in flow cytometry; also called NCI-H929
Procedure: The ability of the antibodies or antibody-interferon constructs to bind the human CD38-positive myeloma cell lines ARP-1 or H929 in flow cytometry-based assays was tested. ARP-1 cells or H929 cells (5×10⁵, as judged by trypan blue exclusion) were incubated with each protein or with a human IgG4 monoclonal antibody with irrelevant specificity protein construct at various concentrations in 50 μL of FACS buffer (PBS plus 1% fetal calf serum, FCS, 0.2M HEPES, 0.5M EDTA) in 96 well plates for 60 minutes on ice in the dark. Cells were washed three times with FACS buffer before incubation for 30 minutes in 50 μL of FACS buffer containing goat anti-human IgG (Fc-specific, conjugated to fluorescein isothiocyanate, FITC; Sigma-Aldrich, St. Louis, Mo.). After washing three times with FACS buffer, cells were fixed with 50 μL of PBS containing 4% formaldehyde v/v and incubated at 4° C. in the dark for 16 hours. Incubated cells in suspension were diluted with an additional 150 μL of FACS buffer and analyzed for binding by flow cytometry on a FACS Canto II (BD Biosciences, San Diego, Calif.) using forward scatter, side scatter and fluorescence intensity in the FITC channel.

[2] = biological target: T2, Human CD38 (human, UniProt P28907 43-300); assay: SPR (Biacore), antibody from supernatant captured on Protein A, human CD38 injected, 1:1 fit
Procedure: (§1) The capacity of anti-CD38 antibodies and anti-CD38-attenuated IFN fusion proteins to bind to human CD38 were measured using unpurified transfected cell supernatant prepared 7:1 with Non Specific Binding Reducer (GE Healthcare, Piscataway, N.J.). […] FC2 (or FC4) was used as a reference throughout the experiments. The experiments were run at 37° C. in HBS-P+ buffer (0.01 M HEPES, 0.15 M NaCl, 0.005% v/v Surfactant P20, pH 7.4). At a flow rate of 20 l/min, both flow cells were regenerated with 10 μL 50 mM sodium hydroxide before 40 μL supernatant containing the protein was passed over FC1 (or FC3) only. 301 μL of CD38 (10 g/mL in running buffer) or 30 μL running buffer was injected over FC1 and FC2 with a 5 minute dissociation time. Both surfaces were regenerated twice with sodium hydroxide. Results were generated using the BIAevaluation software provided with the machine. Microsoft Excel was used for calculations. BIAevaluation software automatically subtracted the reference sensorgram giving a trace of FC2-1 (or FC4-3) for each sample. A double reference was performed for each antibody tested by subtracting the sensorgram with a CD38 injection from the sensorgram with a blank running buffer injection. […] BIAevalution was used to fit the sensorgram using a Langmuir 1:1 equation in order to generate an equilibrium association constant (KD)

[3] = biological target: T2, Human CD38; assay: as above; remark: listed apart in the source
Procedure: as §1

[4] = biological target: T1, Human CD38 on CD38-positive myeloma …; assay: flow cytometry, ARP-1 cells (CD38-positive); remark: listed apart in the source
Procedure: These heavy chain variable regions were formatted on an IgG4 constant region containing an S228P substitution.
(§2) The ability of the antibodies or antibody-interferon constructs to bind the human CD38-positive myeloma cell lines ARP-1 or H929 in flow cytometry-based assays was tested. ARP-1 cells or H929 cells (5×10⁵, as judged by trypan blue exclusion) were incubated with each protein or with a human IgG4 monoclonal antibody with irrelevant specificity protein construct at various concentrations in 50 μL of FACS buffer (PBS plus 1% fetal calf serum, FCS, 0.2M HEPES, 0.5M EDTA) in 96 well plates for 60 minutes on ice in the dark. Cells were washed three times with FACS buffer before incubation for 30 minutes in 50 μL of FACS buffer containing goat anti-human IgG (Fc-specific, conjugated to fluorescein isothiocyanate, FITC; Sigma-Aldrich, St. Louis, Mo.). After washing three times with FACS buffer, cells were fixed with 50 μL of PBS containing 4% formaldehyde v/v and incubated at 4° C. in the dark for 16 hours. Incubated cells in suspension were diluted with an additional 150 μL of FACS buffer and analyzed for binding by flow cytometry on a FACS Canto II (BD Biosciences, San Diego, Calif.) using forward scatter, side scatter and fluorescence intensity in the FITC channel. The value reported is the mean fluorescence intensity (MFI).

[5] = biological target: T2, Human CD38; assay: SPR (Biacore), antibody from supernatant captured on Protein A, human CD38 injected, 1:1 fit; remark: listed apart in the source
Procedure: as §1

[6] = biological target: T2, Human CD38; assay: as above; remark: listed apart in the source
Procedure: as §1

[7] = biological target: T1, Human CD38 on CD38-positive myeloma …; assay: flow cytometry, ARP-1 cells (CD38-positive); remark: listed apart in the source
Procedure: Antibodies purified from CHO cell supernatants were subsequently tested in flow cytometry-based binding assays to the CD38 positive cell line ARP-1.
as §2

[8] = biological target: T2, Human CD38; assay: SPR (Biacore), antibody from supernatant captured on Protein A, human CD38 injected, 1:1 fit; remark: listed apart in the source
Procedure: as §1

B1: X02.85 (antibody, V domains shown)
VH: QLQLQESGPGLVKPSETLSLTCTVSGGSISSSSYYWSWIRQHPGKGLEWIGYIYYSGSTNYNPSLKSRVTISVDTLKNQISLRLTSVTAADTAVYYCARVGGAGGWPMDVWGQGTTVTVSS
VL: QAVLTQPASLSASPGESARLTCTLPSDINVRYYNIYWYQQKPGSPPRYLLYYYSDSHKGQGSGVPSRFSGSKSTNSGILLISGLQSEDEADYYCMTWSSNGSGVFGGGTQLTVLG
notes: IgG4 S228P with the X02.1 VH; VL residues D(L66A) and V(L66B) of A02.1 are deleted
EC50 [1]: 6.3 µg/mL
Kd [2]: 0.27 nM

B2: X02.9 (antibody, human IgG4 S228P)
heavy: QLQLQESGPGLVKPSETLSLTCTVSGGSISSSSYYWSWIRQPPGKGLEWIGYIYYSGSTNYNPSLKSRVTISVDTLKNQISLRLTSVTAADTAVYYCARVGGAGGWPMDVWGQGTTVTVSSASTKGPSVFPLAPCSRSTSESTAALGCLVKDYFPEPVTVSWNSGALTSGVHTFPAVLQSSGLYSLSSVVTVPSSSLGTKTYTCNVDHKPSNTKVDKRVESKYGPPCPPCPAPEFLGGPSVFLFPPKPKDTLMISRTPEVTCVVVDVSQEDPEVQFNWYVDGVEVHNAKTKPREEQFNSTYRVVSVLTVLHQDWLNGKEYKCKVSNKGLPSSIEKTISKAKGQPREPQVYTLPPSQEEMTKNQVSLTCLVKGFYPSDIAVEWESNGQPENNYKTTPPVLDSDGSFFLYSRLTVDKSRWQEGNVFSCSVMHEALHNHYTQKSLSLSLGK
VL: QAVLTQPASLSASPGESARLTCTLPSDINVRYYNIYWYQQKPGSPPRYLLYYYSDSHKGQGSGVPSRFSGSKDVSTNSGILLISGLQSEDEADYYCMTWSSNGSGVFGGGTQLTVLG
notes: IgG4 S228P; VH H40P relative to X02.1
Kd [3]: 26.3 nM

B3: X02.73 (antibody, human IgG4 S228P)
heavy: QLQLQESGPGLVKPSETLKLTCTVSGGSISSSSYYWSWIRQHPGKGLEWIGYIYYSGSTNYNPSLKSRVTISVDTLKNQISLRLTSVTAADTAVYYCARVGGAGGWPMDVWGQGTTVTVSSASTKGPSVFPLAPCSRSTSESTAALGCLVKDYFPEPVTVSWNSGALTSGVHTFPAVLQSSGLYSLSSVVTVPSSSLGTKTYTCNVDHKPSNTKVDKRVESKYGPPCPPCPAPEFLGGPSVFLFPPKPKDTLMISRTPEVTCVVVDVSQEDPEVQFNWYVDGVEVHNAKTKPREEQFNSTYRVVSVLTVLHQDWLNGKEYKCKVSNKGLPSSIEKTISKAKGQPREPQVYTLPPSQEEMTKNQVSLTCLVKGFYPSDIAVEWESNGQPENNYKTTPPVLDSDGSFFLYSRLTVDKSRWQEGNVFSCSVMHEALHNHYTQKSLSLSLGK
VL: B2 VL
notes: IgG4 S228P; VH S19K relative to X02.1
EC50 [4]: 4.3 µg/mL
Kd [5]: 0.385 nM

B4: X02.72 (antibody, human IgG4 S228P)
heavy: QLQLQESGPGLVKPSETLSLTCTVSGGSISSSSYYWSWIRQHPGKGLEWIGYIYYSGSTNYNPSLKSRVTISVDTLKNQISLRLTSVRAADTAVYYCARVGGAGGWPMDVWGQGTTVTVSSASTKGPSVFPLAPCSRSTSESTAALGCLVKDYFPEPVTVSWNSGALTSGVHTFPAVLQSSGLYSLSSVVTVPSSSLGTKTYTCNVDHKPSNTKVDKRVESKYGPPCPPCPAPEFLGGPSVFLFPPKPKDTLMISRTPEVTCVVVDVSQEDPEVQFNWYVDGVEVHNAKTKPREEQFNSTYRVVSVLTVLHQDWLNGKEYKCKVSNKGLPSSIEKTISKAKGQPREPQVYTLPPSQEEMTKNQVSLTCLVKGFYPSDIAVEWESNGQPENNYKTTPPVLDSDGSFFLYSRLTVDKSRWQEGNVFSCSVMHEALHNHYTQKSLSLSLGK
VL: B2 VL
notes: IgG4 S228P; VH T83R relative to X02.1
EC50 [4]: 3.6 µg/mL
Kd [5]: 1.63 nM

B5: X02.106 (antibody, V domains shown)
VH: B1 VH
VL: B2 VL with G103A
notes: IgG4 S228P with the X02.1 VH; VL G95A relative to A02.1
Kd [6]: 44.7 nM

B6: X02.102 (antibody, V domains shown)
VH: B1 VH
VL: B2 VL with T76A
notes: IgG4 S228P with the X02.1 VH; VL T68A relative to A02.1
EC50 [7]: 20.4 µg/mL
Kd [6]: 0.12 nM

B7: X02.75 (antibody, human IgG4 S228P)
heavy: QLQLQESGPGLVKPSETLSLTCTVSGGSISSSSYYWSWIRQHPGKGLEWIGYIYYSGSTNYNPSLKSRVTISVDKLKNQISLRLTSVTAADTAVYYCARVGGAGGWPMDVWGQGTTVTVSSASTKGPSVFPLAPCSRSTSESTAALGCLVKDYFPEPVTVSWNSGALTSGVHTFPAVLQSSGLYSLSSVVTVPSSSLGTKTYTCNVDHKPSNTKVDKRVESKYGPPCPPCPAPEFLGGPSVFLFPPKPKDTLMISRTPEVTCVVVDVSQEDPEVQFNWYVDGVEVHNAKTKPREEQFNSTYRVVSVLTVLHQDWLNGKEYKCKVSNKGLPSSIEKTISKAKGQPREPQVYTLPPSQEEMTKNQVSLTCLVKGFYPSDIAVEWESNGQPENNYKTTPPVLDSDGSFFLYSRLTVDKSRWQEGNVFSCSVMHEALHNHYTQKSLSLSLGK
VL: B2 VL
notes: IgG4 S228P; VH T73K relative to X02.1
EC50 [4]: 4.9 µg/mL
Kd [5]: 0.638 nM

B8: X02.94 (antibody, V domains shown)
VH: B1 VH
VL: B2 VL with M97L
notes: IgG4 S228P with the X02.1 VH; VL M89L relative to A02.1
Kd [8]: 0.00348 nM

B9: X02.97 (antibody)
heavy: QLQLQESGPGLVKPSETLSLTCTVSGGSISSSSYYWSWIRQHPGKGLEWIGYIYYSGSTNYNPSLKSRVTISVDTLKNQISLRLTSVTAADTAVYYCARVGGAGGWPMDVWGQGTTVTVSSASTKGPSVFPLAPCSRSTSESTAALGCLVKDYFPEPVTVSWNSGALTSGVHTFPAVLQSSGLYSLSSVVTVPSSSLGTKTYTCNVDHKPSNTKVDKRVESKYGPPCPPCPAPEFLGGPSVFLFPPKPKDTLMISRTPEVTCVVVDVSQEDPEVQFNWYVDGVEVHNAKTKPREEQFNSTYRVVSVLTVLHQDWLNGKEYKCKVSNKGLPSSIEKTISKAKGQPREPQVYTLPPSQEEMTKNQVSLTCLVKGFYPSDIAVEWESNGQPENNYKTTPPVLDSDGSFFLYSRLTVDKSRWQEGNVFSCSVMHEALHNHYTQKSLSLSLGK
VL: B2 VL with L10S
notes: IgG4 S228P with the X02.1 VH; VL L11S relative to A02.1
Kd [6]: 0.00751 nM

B10: X02.70 (antibody, human IgG4 S228P)
heavy: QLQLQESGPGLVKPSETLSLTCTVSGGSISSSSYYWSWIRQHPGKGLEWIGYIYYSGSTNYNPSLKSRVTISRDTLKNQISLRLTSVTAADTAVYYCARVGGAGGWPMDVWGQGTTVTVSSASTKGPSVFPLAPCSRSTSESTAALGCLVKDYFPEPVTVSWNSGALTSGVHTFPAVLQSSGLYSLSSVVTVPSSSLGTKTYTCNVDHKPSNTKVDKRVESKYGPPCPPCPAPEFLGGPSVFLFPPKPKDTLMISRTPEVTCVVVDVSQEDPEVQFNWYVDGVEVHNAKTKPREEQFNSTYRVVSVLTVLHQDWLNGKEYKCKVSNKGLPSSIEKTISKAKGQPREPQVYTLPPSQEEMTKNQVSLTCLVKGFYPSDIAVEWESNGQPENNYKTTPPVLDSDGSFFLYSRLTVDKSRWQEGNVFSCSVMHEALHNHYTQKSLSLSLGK
VL: B2 VL
notes: IgG4 S228P; VH V71R relative to X02.1
EC50 [4]: 7.2 µg/mL
Kd [5]: 3.54 nM

B11: X02.93 (antibody, V domains shown)
VH: B1 VH
VL: B2 VL with M97I
notes: IgG4 S228P with the X02.1 VH; VL M89I relative to A02.1
Kd [8]: 0.0256 nM

B12: X02.10 (antibody, human IgG4 S228P)
heavy: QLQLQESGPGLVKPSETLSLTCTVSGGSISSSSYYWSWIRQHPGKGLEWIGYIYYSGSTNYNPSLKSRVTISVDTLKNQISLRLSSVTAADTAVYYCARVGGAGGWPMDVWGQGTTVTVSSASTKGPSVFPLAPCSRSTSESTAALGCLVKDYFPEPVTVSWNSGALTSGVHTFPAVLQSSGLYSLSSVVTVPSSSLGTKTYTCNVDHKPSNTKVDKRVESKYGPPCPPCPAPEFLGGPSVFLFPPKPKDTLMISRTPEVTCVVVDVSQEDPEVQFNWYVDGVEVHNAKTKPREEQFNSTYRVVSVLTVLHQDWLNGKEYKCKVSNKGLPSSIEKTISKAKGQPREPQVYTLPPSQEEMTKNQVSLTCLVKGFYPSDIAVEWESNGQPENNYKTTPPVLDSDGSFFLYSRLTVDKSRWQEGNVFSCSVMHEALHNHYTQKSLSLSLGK
VL: B2 VL
notes: IgG4 S228P; VH T(82A)S relative to X02.1
Kd [3]: 20.7 nM

B13: X02.105 (antibody, V domains shown)
VH: B1 VH
VL: B2 VL with S100P
notes: IgG4 S228P with the X02.1 VH; VL S92P relative to A02.1
Kd [6]: 33.1 nM

B14: X02.68 (antibody, human IgG4 S228P, V domains shown)
VH: B1 VH with T23K
VL: B2 VL
notes: IgG4 S228P; VH T23K relative to X02.1
Kd [5]: 0.0106 nM

B15: X02.98 (antibody, V domains shown)
VH: B1 VH
VL: B2 VL with R31G
notes: IgG4 S228P with the X02.1 VH; VL R29S relative to A02.1
Kd [6]: 0.00584 nM

B16: X02.103 (antibody, V domains shown)
VH: B1 VH
VL: B2 VL with S78T
notes: IgG4 S228P with the X02.1 VH; VL S70T relative to A02.1
EC50 [7]: 9.4 µg/mL
Kd [6]: 1.28 nM

B17: X02.87 (antibody, V domains shown)
VH: B1 VH
VL: B2 VL with S104A
notes: IgG4 S228P with the X02.1 VH; VL S96A relative to A02.1
Kd [8]: 1.99 nM

B18: X02.100 (antibody, V domains shown)
VH: B1 VH
VL: B2 VL with H57D
notes: IgG4 S228P with the X02.1 VH; VL H(54A)D relative to A02.1
Kd [6]: 160 nM

B19: X02.81 (antibody, V domains shown)
VH: B1 VH
VL: B2 VL with N77A
notes: IgG4 S228P with the X02.1 VH; VL N69A relative to A02.1
Kd [8]: 0.267 nM

B20: X02.83 (antibody)
heavy: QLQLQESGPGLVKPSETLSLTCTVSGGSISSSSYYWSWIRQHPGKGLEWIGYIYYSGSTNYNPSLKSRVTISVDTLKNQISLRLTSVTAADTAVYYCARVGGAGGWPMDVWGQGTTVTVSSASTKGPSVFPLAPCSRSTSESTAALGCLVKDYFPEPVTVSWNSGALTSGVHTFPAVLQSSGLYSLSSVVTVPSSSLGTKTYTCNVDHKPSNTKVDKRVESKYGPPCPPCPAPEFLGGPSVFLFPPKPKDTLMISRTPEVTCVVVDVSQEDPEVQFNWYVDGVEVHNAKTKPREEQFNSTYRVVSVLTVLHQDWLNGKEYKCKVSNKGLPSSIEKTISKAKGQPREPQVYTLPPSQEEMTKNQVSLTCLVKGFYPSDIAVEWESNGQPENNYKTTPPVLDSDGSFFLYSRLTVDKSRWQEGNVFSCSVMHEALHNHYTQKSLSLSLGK
VL: B2 VL with E16A
notes: IgG4 S228P with the X02.1 VH; VL E17A relative to A02.1
EC50 [1]: 8.2 µg/mL
Kd [2]: 2.69 nM

B21: X02.104 (antibody, V domains shown)
VH: B1 VH
VL: B2 VL with T98I
notes: IgG4 S228P with the X02.1 VH; VL T90I relative to A02.1
Kd [6]: 10 nM

B22: X02.108 (antibody, human IgG4 S228P, V domains shown)
VH: B1 VH with I80F
VL: B2 VL
notes: IgG4 S228P; VH I78F relative to X02.1
Kd [3]: 26.3 nM

B23: X02.101 (antibody, V domains shown)
VH: B1 VH
VL: B2 VL with V74A
notes: IgG4 S228P with the X02.1 VH; VL V(66B)A relative to A02.1
EC50 [7]: 13.7 µg/mL
Kd [6]: 0.0289 nM

B24: X02.95 (antibody)
heavy: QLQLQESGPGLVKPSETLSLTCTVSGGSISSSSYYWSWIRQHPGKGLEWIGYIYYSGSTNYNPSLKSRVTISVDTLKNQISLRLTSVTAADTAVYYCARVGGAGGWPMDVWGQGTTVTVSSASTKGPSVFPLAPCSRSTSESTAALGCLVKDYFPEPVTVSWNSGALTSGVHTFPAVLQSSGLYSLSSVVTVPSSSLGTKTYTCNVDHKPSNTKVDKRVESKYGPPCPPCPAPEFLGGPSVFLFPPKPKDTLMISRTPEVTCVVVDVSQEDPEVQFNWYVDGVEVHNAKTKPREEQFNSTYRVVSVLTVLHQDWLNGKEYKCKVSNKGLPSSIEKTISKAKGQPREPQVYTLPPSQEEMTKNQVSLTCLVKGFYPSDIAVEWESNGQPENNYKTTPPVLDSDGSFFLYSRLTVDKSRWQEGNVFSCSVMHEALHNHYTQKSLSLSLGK
VL: B2 VL with A2P
notes: IgG4 S228P with the X02.1 VH; VL A2P relative to A02.1
Kd [6]: 0.0044 nM

B25: X02.110 (antibody, human IgG4 S228P, V domains shown)
VH: B1 VH with R83K
VL: B2 VL
notes: IgG4 S228P; VH R81K relative to X02.1
Kd [3]: 20.7 nM

B26: X02.86 (antibody, V domains shown)
VH: B1 VH
VL: B2 VL with D27G
notes: IgG4 S228P with the X02.1 VH; VL D(27A)G relative to A02.1
Kd [2]: 4.28 nM

B27: X02.82 (antibody, V domains shown)
VH: B1 VH
VL: B2 VL with Y51R
notes: IgG4 S228P with the X02.1 VH; VL Y49R relative to A02.1
EC50 [1]: 3.8 µg/mL

B28: X02.99 (antibody, V domains shown)
VH: B1 VH
VL: B2 VL with Y32S
notes: IgG4 S228P with the X02.1 VH; VL Y30S relative to A02.1
Kd [6]: 0.00321 nM

B29: X02.91 (antibody, V domains shown)
VH: B1 VH
VL: B2 VL with P25R
notes: IgG4 S228P with the X02.1 VH; VL P26R relative to A02.1
Kd [2]: 0.707 nM

B30: X02.80 (antibody, V domains shown)
VH: B1 VH
VL: B2 VL with N102Q
notes: IgG4 S228P with the X02.1 VH; VL N94Q relative to A02.1
Kd [8]: 1.44 nM

B31: X02.96 (antibody)
heavy: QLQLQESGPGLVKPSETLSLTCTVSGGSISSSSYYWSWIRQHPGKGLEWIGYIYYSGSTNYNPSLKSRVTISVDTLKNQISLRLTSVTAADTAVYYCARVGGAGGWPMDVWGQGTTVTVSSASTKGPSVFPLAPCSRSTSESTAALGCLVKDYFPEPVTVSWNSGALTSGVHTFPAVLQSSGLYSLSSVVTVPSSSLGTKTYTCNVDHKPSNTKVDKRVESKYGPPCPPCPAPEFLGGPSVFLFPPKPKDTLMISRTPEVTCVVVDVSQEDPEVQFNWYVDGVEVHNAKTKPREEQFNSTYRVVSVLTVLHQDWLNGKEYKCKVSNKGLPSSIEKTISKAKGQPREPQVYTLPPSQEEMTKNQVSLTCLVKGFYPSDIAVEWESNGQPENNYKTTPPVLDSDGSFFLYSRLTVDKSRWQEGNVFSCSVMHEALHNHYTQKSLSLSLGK
VL: B2 VL with A8P
notes: IgG4 S228P with the X02.1 VH; VL A8P relative to A02.1
EC50 [7]: 30 µg/mL
Kd [6]: 0.25 nM

B32: X02.90 (antibody, V domains shown)
VH: B1 VH
VL: B2 VL with N102T
notes: IgG4 S228P with the X02.1 VH; VL N94T relative to A02.1
Kd [8]: 0.552 nM
